Reference: the supplement of paper PMC9170038

Test system: MS2 coat protein
Experiment: apparent KD of MS2 coat protein; designed switch direction (-1 OFF switch, 1 ON switch): -1; higher = weaker reporter binding
Procedure, shortened: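 SNAP-549-labelled MS2 coat protein was titrated, doubling from 0.7 or 1.5 nM to 3 µM, over designed RNA switches transcribed on Illumina chips by stalled E. coli RNA polymerase. Runs were done without input, with 200 uM small-molecule ligand, or with an oligonucleotide input. Apparent KD is the per-design median over clusters of curve-fitted normalised fluorescence.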

[1] = input ligand: microRNA oligo, concentration not stated
[2] = Eterna round: R95, input ligand: microRNA oligo, concentration not stated
[3] = Eterna round: R95, input ligand: FMN 200 uM
[4] = Eterna round: R95, input ligand: none

Sequence | apparent KD of MS2 coat protein (input ligand: FMN 200 uM) [nM] | apparent KD of MS2 coat protein (input ligand: none) [nM] | apparent KD of MS2 coat protein [1] [nM] | apparent KD of MS2 coat protein [2] [nM] | apparent KD of MS2 coat protein [3] [nM] | apparent KD of MS2 coat protein [4] [nM]
CGCUACGAAGUCAGGAUAUCAGAACAAGAUAAAUAUGAGAAGGGACAUGAGGAUCACCCAUGUUCGGUGGUAGC [BmEX4 A.14] (Eterna round: R97, puzzle: Brourd's mod of Exclusion 4) | 24.6 | 21.1 | – | – | – | –
AAACAAGCGUGAGGCUCGUCUUAAAAAGCUUCAUGAAAAACAUGAGGAUCACCCAUGUAAAAUGAUCGAAAGAUCAA [JL turnoff v2 28] (Eterna round: R96, puzzle: Sensor v2, turn-off variant 2) | 15.4 | 18.2 | 34.2 | – | – | –
CAUUGUUAUCGAGGAUAUCCUAUUGAGAUUCUAGGAGAAGGCGGACUAAACAUGAGGAUCACCCAUGUGGGACGGAUGCUAGGG [Ex NG1 #30] (Eterna round: R96, puzzle: Exclusion NG 1) | 31.4 | 25.2 | 19.8 | – | – | –
AGUAUGUGAGGAUAUUUUUCGUCCGGUAGGAUACUACAGAGAAAGAAGGCACAUGAGGAUCACCCAUGUGAGAC [Eternabot (L1) Solution 55] (Eterna round: R97, puzzle: Exclusion 4) | 48.3 | 20.1 | – | – | – | –
UACCCGUGAGGAUAUAGAGUCCUACACAUGAGGAUCACCCAUGUCAGCCUUAUCGUGGAUCUAGAAGGCAUAAACG [Eternabot (L1) Solution 88] (Eterna round: R97, puzzle: Exclusion 5) | 103 | 183 | – | – | – | –
GUGGGUUACAUGAGGAUCACCCAUGUAGAGUGGGAAGAGAGAUAGGAUAUGAUGUGAGAAUUAUAUUAGAAGGAUCGAGACUCG [AK ExNG3-2.5] (Eterna round: R96, puzzle: Exclusion NG 3) | 246 | 285 | 174 | – | – | –
AAAAUACGCACAGGAUAUCGAUACAUGAGGAUCACCCAUGUAACAUGGACUGGUCAGCAGAAAAGCGAGAAGGGUGCUGACGAC [Lediaroren] (Eterna round: R96, puzzle: Exclusion NG 2) | 334 | 55.6 | 90.3 | – | – | –
ACAUGUAAUGCAGGAUAUGGGACACAUGAGGAUCACCCAUGUGACCAUAUGUAAUGCUAAGAGUCUCAGAAGGGUAUGUACAUG [Ex NG2 #46] (Eterna round: R96, puzzle: Exclusion NG 2) | 15.2 | 12.9 | 7.56 | – | – | –
UCGAGUGCUGAGGAUAUCUGCGAGUAAAGCUCAAGAGAAGGCAGUACAUGAGGAUCACCCAUGUGGAGCCUGUG [EX6 B.27] (Eterna round: R97, puzzle: Exclusion 6) | 86.7 | 21.6 | – | – | – | –
UGAUCAAAUGUCAGGAUAUGCUGUUGGAAACAACAGCAGAAGGGACAUGAGGAUCACCCAUGUCUUGUCGAUUU [Magic-02] (puzzle: Brourd's mod of Exclusion 4) | – | – | – | 20.4 | – | –
UUCCUGUCAGGAUAUGACUAGAUGCACGUUAGUGUGUUUACUUAGAAGGGACAUGAGGAUCACCCAUGUAGUCC [Bring Us a Shrubbery-16] (puzzle: Exclusion 4) | – | – | – | 31.7 | – | –
ACUUAUAGAGGAUAUACAGUUUAUUACAUGAGGAUCACCCAUGUUCUUCAAUGUAUAUAAGUAGAAGGCUAAGGAA [EX-5 Malc#5] (puzzle: Exclusion 5) | – | – | – | 25.2 | 132 | 30
AUGAGCAGACGGAGAUCCAACAUGAGGAUCACCCAUGUCUCAUAAGCUUUUUGCUCAUCUUAUUGUACCUUGGUGCU [Mat - Sensor v3 - turn-off var 1 - JL Mod - D19] (puzzle: Sensor v3, turn-off variant 1) | – | – | – | 11.5 | 191 | 251
AUGAAGUAAGGAUAUACAUGAGGAUCACCCAUGUAAAGAAAAGUAAUGGGAGUAAGAAGUAGAAGGUACGAGAA [JR_Exclu3_Sub061] (puzzle: Exclusion 3) | – | – | – | 48.2 | 53.4 | 54.1
AAUGUCUGAGGAUAUCGAUUAGUGUACAUGAGGAUCACCCAUGUUUUUAUUUGUAUAUUACGAGAAGGCAGUGGAA [JR_E5_Sub087] (puzzle: Exclusion 5) | – | – | – | 19.1 | 20.6 | 17.2
UACAUGAGGAUCACCCAUGUUUUGUCGUGUAUGGUAUUUAUCUAGGAUAUCAAUUUAGUUAGUUAUGAGAAGGAGAAUAUUAAU [JMF's solution 76] (Eterna round: R96, puzzle: Exclusion NG 3) | 48 | 43.8 | 21.1 | – | – | –
AGCUUUUUGCUCGUCUUAUACAUGAGGAUCACCCAUGUAUUGGACCACAUCGAUAGAUGUGGACCAAGAAGCGUGGU [Omdei Mir OFFv1 C4] (Eterna round: R97, puzzle: Sensor, turn-off variant 1) | 38.6 | 39.7 | – | – | – | –

Sequence | apparent KD of MS2 coat protein (input ligand: FMN 200 uM) [nM] | apparent KD of MS2 coat protein (input ligand: none) [nM] | apparent KD of MS2 coat protein [1] [nM] | apparent KD of MS2 coat protein [2] [nM] | apparent KD of MS2 coat protein [3] [nM] | apparent KD of MS2 coat protein [4] [nM]
UGCAUGGUAGGAUAUACGGAACAUUAGGGUUUGUUAUGUAGACAUGAGGAUCACCCAUGUAGAAGGGCCGUGCU [JL-ex2-2.14 mat747 mod] (puzzle: Exclusion 2) | – | – | – | 33.8 | – | –
GUAAAGUGAGGAUAUGGUAAAGUAAUUAUUUAGUAAGUAAUCCAGAAGGCACAUGAGGAUCACCCAUGUAAAUG [Mat - Exclusion 4 - D97] (puzzle: Exclusion 4) | – | – | – | 25.7 | – | –
AAAUUAGCAAGUAGAUCCGACAUGAGGAUCACCCAUGUAAUCUAAAAUUACGCUGCACGAAAGUGCGCUCGUCUUAG [Sensor-V1 #13] (Eterna round: R97, puzzle: Sensor, turn-off variant 1) | 362 | 405 | – | – | – | –
AUUGUAGAUGUGAGGAUAUCGUAGAUUUUUUGAAACGAGAAGGCACAUGAGGAUCACCCAUGUAAGAUGUAGGU [JR_BMOE4_Sub053] (puzzle: Brourd's mod of Exclusion 4) | – | – | – | 118 | 45.8 | 298
GAGUGACAUGAGGAUCACCCAUGUGAGGAUAUCCGAUGGACCAAAUUAACAAUAGAAGGGAGAAGGCACAUAAA [Exclusion 1 V7] (puzzle: Exclusion 1) | – | – | – | 127 | 162 | 131
CUAAAUCAUGUAGGAUAUGCGUGGCAAAGCUAUGCAGAAGGACAUGAGGAUCACCCAUGUGCUUCCGUCUGAGAACAGACGGUA [Mat - Exclusion NG 1 - Mod of JL - D23] (Eterna round: R96, puzzle: Exclusion NG 1) | 306 | 68.2 | 49.6 | – | – | –
GCCGUUAAAGGAUAUACAUGAGGAUCACCCAUGUCGGUAUAAAAUUUACCGCCUCCCUGUAGAAGGUUAAGGCA [Xebiatorer] (puzzle: Exclusion 3) | – | – | – | 16.1 | – | –
AGAAAUGUCCAUGGCCGCAAGCUUUUUACUUGUCUUACCACAUGAGGAUCACCCAUGUGACAUGGACUCCUUAUGAU [Sensor v3, turn-off variant 2 (MOD of Oranla v.3)] (puzzle: Sensor v3, turn-off variant 2) | – | – | – | 43 | 17 | 14.8
UCUUUCUUUGUGAGGAUAUGCCCAAAUAAAAGCGGGCAGAAGGCACAUGAGGAUCACCCAUGUCCUGCGGUUUU [salish99_bmx4_r4_147] (Eterna round: R97, puzzle: Brourd's mod of Exclusion 4) | 174 | 16.5 | – | – | – | –
UUUUAACAUGAGGAUCACCCAUGUGAGGAUAUCGUAAUUUUUAUUAAUAUUAAUAAAACGAGAAGGCACAUUUU [JMF 13] (puzzle: Exclusion 1) | – | – | – | 66.8 | – | –
CUCGUGGUGAAGGAUAUCCGCGAGAAAAUAAAAGGAGAAGGUCACACAUGAGGAUCACCCAUGUGAUGAAGAAA [Anesanza] (puzzle: Exclusion 6) | – | – | – | 11.6 | 16.4 | 11.9
GUGAGGUAAGGAUAUAGUAGUGAAGGUAAAAUAUGAGAAUGCUAGAAGGUACAUGAGGAUCACCCAUGUUAGGG [JR_Exclu4_Sub088] (puzzle: Exclusion 4) | – | – | – | 146 | – | –
GGUCAGAUGGUAGGAUAUCUAUAUCGAGUGACCCUUUCAUAACAUGAGGAUCACCCAUGUCGGUGGGAGAAGGGCCGUACGGCG [salish99_ExNG02_R04_012] (Eterna round: R96, puzzle: Exclusion NG 2) | 41.1 | 40.2 | 30.6 | – | – | –
CUGAGCUGAGGAUAUACAUGAGGAUCACCCAUGUGAAGUAGCUUGCGUACAGGCAGAUGUAGAAGGCAGUUCGG [JL-ex3-3.31 Brourd mod] (puzzle: Exclusion 3) | – | – | – | 34.6 | – | –
CGAUGAGGAGUGAGGAUAUCGUGUUCGAAAGAACGUGAGAAGGCACAUGAGGAUCACCCAUGUGAUCCUUGUCG [Omei Ex4B A9] (Eterna round: R97, puzzle: Brourd's mod of Exclusion 4) | 57.2 | 30.4 | – | – | – | –
AUGUUUGUAGUGAGGAUAUCGUUGAGGAAGAGGAUCGAGAAGGCACAUGAGGAUCACCCAUGUAAGAUGUGGUA [JR_BMOE4_Sub081] (puzzle: Brourd's mod of Exclusion 4) | – | – | – | 61.2 | 69.9 | 55.5
CGAUCGGAAGGAUAUACACCUCACGUCAAACGGACAACCGGACAUGAGGAUCACCCAUGUAGAAGGUCCAAAAU [Tetixeve] (puzzle: Exclusion 2) | – | – | – | 55.7 | – | –
